According to the supplement of paper PMC11811203:

B1: THAP1; numbered along this chain (parent)
chain: MVQSCSAYGCKNRYDKDKPVSFHKFPLTRPSLCKEWEAAVRRKNFKPTKYSSICSEHFTPDCFKRECNNKLLKENAVPTIFLCTEPHDKKEDLLEPQEQLPPPPLPPPVSQVDAAIGLLMPPLQTPVNLSVFCDHNYTVEDTMHQRKRIHQLEQQVEKLRKKLKTAQQRCRRQERQLEKLKEVVHFQKEKDDVSERGYVILPNDYFEIVEVPA

Variants of: B1
Test: THAP1 transcriptional activity (GFP+/GFP- enrichment relative to wild-type constructs) (ratio to WT); higher = more THAP1 activity (PSMB5 reporter activation)
Settings: with PSMB5 promoter-GFP reporter
How it was run: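 Variants were counted by Illumina sequencing of genomic DNA amplicons from BFP+ cells sorted into GFP-bright and GFP-dim bins five days after lentiviral transduction, in duplicate at MOI ~0.3. The library changed each of residues 2–213 of human THAP1 to all 20 amino acids and was introduced into THAP1-knockout HEK-293T cells with mClover3 knocked in at endogenous PSMB5. Activity equals the replicate-mean bright/dim read fold change over the mean of wild-type synonymous constructs.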

THAP1 transcriptional activity: each site, then its substitutions
P104: A 1.09; W 0.527; S 2.12; D 6.01; E 1.85; R 0.888; Q 1.88; T 1.39; G 1.2; M 0.907; C 0.986; I 0.946; F 0.865; K 1.14; Y 0.704; V 2.16
P107: R 0.608; E 1.58; M 1.29; T 1.04; Y 1.42; W 0.215; H 0.688; Q 1.2; I 0.533; N 0.608; D 1.21; L 1.74; C 0.851; A 1.2; F 0.519; G 1.11; S 1.14; K 1.6
S110: R 0.973; G 1.15; Y 0.394; P 0.916; E 0.424; F 0.715; C 0.567; A 0.787; H 0.672; I 0.783; K 1.31; Q 0.788; M 0.337; L 0.361; T 0.793; D 0.782; W 0.41; V 0.459
V112: D 0.804; S 1.12; A 0.615; N 1.3; I 0.587; C 1.08; Q 1.03; F 0.388; L 0.629; R 0.921; G 1.11; K 1.74; H 0.743; P 1.04; M 1.24; T 1.06; E 1.25; W 0.234
Q111: F 0.585; C 0.52; Y 0.232; I 0.508; M 0.329; T 1.13; D 1.06; K 1.01; E 0.762; H 0.97; L 0.357; P 0.993; R 0.543; V 0.457; N 0.81; G 0.565; W 0.132; A 0.608
A115: E 1.47; K 0.658; Q 0.738; C 0.428; M 0.233; Y 0.256; G 0.474; V 0.454; P 0.658; L 0.295; D 1.12; H 0.76; R 0.409; I 0.237; S 0.742; F 0.278; W 0.164; T 0.594; N 0.982
L118: N 2.21; R 1.19; V 0.976; Q 1.04; A 0.723; F 1.09; I 1.1; W 0.319; E 0.947; Y 0.871; S 0.509; K 0.884; P 1.1; C 0.498; D 0.991; G 0.954; H 1.01
L119: Q 0.718; F 0.425; K 1.25; Y 0.443; A 0.912; V 0.5; G 0.614; W 0.533; R 0.731; P 1.08; D 0.609; S 0.92; M 0.525; I 1.11; C 0.404; E 1.03; N 1.09; H 0.929
D113: A 0.667; G 0.816; V 0.277; L 0.336; E 0.669; H 0.473; T 0.375; K 0.918; C 0.573; R 0.285; I 0.206; N 0.681; P 0.638; Y 0.229; W 0.173; M 0.24; S 0.697; F 0.135; Q 0.7
P106: S 2.1; C 1.25; F 0.72; T 1.33; M 1.23; V 1.39; Y 1.49; R 1.58; D 1.76; H 0.72; I 1.07; L 0.994; N 1.89; E 2.61; W 0.703; K 1.89
M120: G 0.81; E 1.25; P 1.25; D 1.08; C 0.909; Q 1.57; I 1.14; K 1.37; R 0.835; F 0.651; L 0.534; N 1.38; A 0.822; H 0.611
I116: H 0.735; P 0.93; G 1.82; Y 0.918; C 0.903; F 0.452; E 0.841; N 0.988; W 0.472; Q 0.902; A 1; S 1.3; L 0.739; T 1.04; R 0.984; V 1.05; M 0.731; K 0.886; D 1.33
A114: F 0.602; P 1.29; Y 0.291; C 0.678; D 1.33; K 0.546; G 0.748; V 0.296; W 0.317; T 1.27; E 0.768; S 0.612; H 0.483; N 1.35; Q 0.985; M 0.387; I 0.238; L 0.635
P103: D 1.44; L 1.61; V 1.04; Q 1.15; M 0.728; R 1.56; N 0.938; T 1.19; F 0.27; S 1.1; K 1.31; W 0.806; E 1.22; H 0.719; Y 0.902
V109: D 2.07; I 0.777; Q 1.24; F 0.884; A 1.33; M 1.17; E 3.82; S 1.31; W 0.467; K 2.39; R 0.788; Y 0.304; C 1.49; T 1.18; G 1.96; L 2.8; N 2.02
L105: W 0.491; S 2.43; E 1.27; F 0.955; A 1.61; K 1.34; H 1.54; G 1.09; I 2.11; Y 0.831; C 1.32; M 1.81; N 1.92; T 1.56
P102: V 2.39; A 1.01; T 0.743; E 1.85; N 1.12; D 2; R 1.43; G 2.33; L 1.12; H 1.04; M 0.907; F 0.858; Q 3.01; I 1.31; W 1.02; S 1.09; C 1.36
G117: F 0.352; D 0.481; N 0.857; A 0.485; M 0.138; S 0.877; C 0.534; P 1.14; L 0.288; Q 0.581; T 0.51; R 0.476; H 0.396; W 0.261; Y 0.262; E 1.6; I 0.169; K 0.256
P108: N 2.3; V 2.03; C 0.724; E 1.26; Q 1.31; I 1.18; T 1.43; H 1.01; S 1.65; K 0.9; G 1.24; D 1.66; L 1.93; M 0.588; Y 0.559; W 0.601; F 0.519; A 1.3
P101: S 1.96; T 1.5; V 0.772; R 1.3; Q 1.61; W 0.985; Y 1.08
